Changes are numbered by the printed parent chain.
T1: CD20 on the surface of Raji cells (human, UniProt P11836 1-297)
T1 construct: whole, on cells; Raji cells are described as human B lymphoma cells, CD20 positive; also called human CD20
T1 sequence (looked up): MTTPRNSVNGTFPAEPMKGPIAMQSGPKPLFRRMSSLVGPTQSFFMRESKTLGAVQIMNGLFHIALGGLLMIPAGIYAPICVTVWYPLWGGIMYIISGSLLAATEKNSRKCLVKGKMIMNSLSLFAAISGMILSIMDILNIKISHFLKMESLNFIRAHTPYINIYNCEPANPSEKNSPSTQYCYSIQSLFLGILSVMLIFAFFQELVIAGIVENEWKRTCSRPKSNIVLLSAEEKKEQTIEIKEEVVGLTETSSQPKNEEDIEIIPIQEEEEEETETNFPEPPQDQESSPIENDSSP

B1: bispecific antibody molecule TZT6 (bispecific antibody, human IgG4 S228P, kappa)
heavy: QVQLVQSGAEVKKPGSSVKVSCKASGYAFSYSWINWVRQAPGQGLEWMGRIFPGDGDTDYNGKFKGRVTITADKSTSTAYMELSSLRSEDTAVYYCARNVFDGYWLVYWGQGTLVTVSSASTKGPSVFPLAPCSRSTSESTAALGCLVKDYFPEPVTVSWNSGALTSGVHTFPAVLQSSGLYSLSSVVTVPSSSLGTKTYTCNVDHKPSNTKVDKRVESKYGPPCPPCPAPEFLGGPSVFLFPPKPKDTLMISRTPEVTCVVVDVSQEDPEVQFNWYVDGVEVHNAKTKPREEQFNSTYRVVSVLTVLHQDWLNGKEYKCKVSNKGLPSSIEKTISKAKGQPREPQVYTLPPCQEEMTKNQVSLWCLVKGFYPSDIAVEWESNGQPENNYKTTPPVLDSDGSFFLYSRLTVDKSRWQEGNVFSCSVMHEALHNHYTQKSLSLSLGK
light: DIVMTQTPLSLPVTPGEPASISCRSSKSLLHSNGITYLYWYLQKPGQSPQLLIYQMSNLVSGVPDRFSGSGSGTDFTLKISRVEAEDVGVYYCAQNLELPYTFGGGTKVEIKRTVAAPSVFIFPPSDEQLKSGTASVVCLLNNFYPREAKVQWKVDNALQSGNSQESVTEQDSKDSTYSLSSTLTLSKADYEKHKVYACEVTHQGLSSPVTKSFNRGEC
chain: QAVVTQEPSLTVSPGGTVTLTCRSSTGAVTTSNYANWVQQKPGQAPRGLIGGTNKRAPGTPARFSGSLLGGKAALTLSGVQPEDEAEYYCALWYSNLWVFGCGTKLTVLGGGGSGGGGSGGGGSGGGGSEVQLVESGGGLVQPGGSLKLSCAASGFTFSTYAMNWVRQAPGKCLEWVGRIRSKYNNYATYYADSVKDRFTISRDDSKNSLYLQMNSLKTEDTAVYYCVRHGNFGNSYVSWFAYWGQGTLVTVSSGGGGSGGGGSESKYGPPCPPCPAPEFLGGPSVFLFPPKPKDTLMISRTPEVTCVVVDVSQEDPEVQFNWYVDGVEVHNAKTKPREEQFNSTYRVVSVLTVLHQDWLNGKEYKCKVSNKGLPSSIEKTISKAKGQPREPQVCTLPPSQEEMTKNQVSLSCAVKGFYPSDIAVEWESNGQPENNYKTTPPVLDSDGSFFLVSRLTVDKSRWQEGNVFSCSVMHEALHNRFTQKSLSLSLGK
notes: also called anti-CD3/CD20 bispecific antibody TZT6
B2: bispecific antibody molecule TZT7 (bispecific antibody, human IgG4 S228P, kappa)
heavy: B1 heavy with Y348C, C353S, W365S, L367A, Y406V, H434R, Y435F
light: B1 light
chain: QVQLVQSGAEVKKPGSSVKVSCKASGYAFSYSWINWVRQAPGQGLEWMGRIFPGDGDTDYNGKFKGRVTITADKSTSTAYMELSSLRSEDTAVYYCARNVFDGYWLVYWGQGTLVTVSSASTKGPSVFPLAPCSRSTSESTAALGCLVKDYFPEPVTVSWNSGALTSGVHTFPAVLQSSGLYSLSSVVTVPSSSLGTKTYTCNVDHKPSNTKVDKRVASGGGGSGGGGSQAVVTQEPSLTVSPGGTVTLTCRSSTGAVTTSNYANWVQQKPGQAPRGLIGGTNKRAPGTPARFSGSLLGGKAALTLSGVQPEDEAEYYCALWYSNLWVFGCGTKLTVLGGGGSGGGGSGGGGSGGGGSEVQLVESGGGLVQPGGSLKLSCAASGFTFSTYAMNWVRQAPGKCLEWVGRIRSKYNNYATYYADSVKDRFTISRDDSKNSLYLQMNSLKTEDTAVYYCVRHGNFGNSYVSWFAYWGQGTLVTVSSGGGGSGGGGSESKYGPPCPPCPAPEFLGGPSVFLFPPKPKDTLMISRTPEVTCVVVDVSQEDPEVQFNWYVDGVEVHNAKTKPREEQFNSTYRVVSVLTVLHQDWLNGKEYKCKVSNKGLPSSIEKTISKAKGQPREPQVYTLPPCQEEMTKNQVSLWCLVKGFYPSDIAVEWESNGQPENNYKTTPPVLDSDGSFFLYSRLTVDKSRWQEGNVFSCSVMHEALHNHYTQKSLSLSLGK
notes: IgG4 Fc (G4 FC in the vector's name); also called anti-CD3/CD20 bispecific antibody TZT7
B3: JSCD3 (antibody, human IgG4 S228P, kappa, V domains shown)
VH: EVQLVESGGGLVQPGGSLKLSCAASGFTFSTYAMNWVRQAPGKGLEWVGRIRSKYNNYATYYADSVKDRFTISRDDSKNSLYLQMNSLKTEDTAVYYCVRHGNFGNSYVSWFAYWGQGTLVTVSS
VL: QAVVTQEPSLTVSPGGTVTLTCRSSTGAVTTSNYANWVQQKPGQAPRGLIGGTNKRAPGTPARFSGSLLGGKAALTLSGVQPEDEAEYYCALWYSNLWVFGGGTKLTVLR
notes: humanized from murine SP34; also called humanized anti-CD3 antibody JSCD3; positive control

Experiments:
[1] = target: T1, CD20 on the surface of Raji cells; test: flow cytometry on Raji cells (CD20 positive), MFI dose curve
[2] = target: T2, human CD3 on the surface of Jurkat cells (human, UniProt P07766 23-207; P04234 22-171; P09693 23-182); test: flow cytometry on Jurkat cells (CD3-positive), MFI dose curve
T2 construct: whole, on cells

[3] = target: T1, CD20 on the surface of Raji cells; test: flow cytometry on Raji cells (CD20 positive), fluorescent secondary antibody, µg/mL is the unit of the axis; fit value of a flat curve
[4] = target: T3, cynomolgus monkey CD3e overexpressed on the surface of CHO cells (cynomolgus monkey, UniProt Q95LI5 22-198); test: flow cytometry on CHO cells overexpressing cynomolgus monkey CD3e
T3 construct: whole, on cells; also called CHO Cyno CD3e cells

[5] = target: T4, recombinant human CD3ε (Novoprotein, C578) (human, UniProt P07766 23-126); test: ELISA, plate coated with recombinant human CD3ε, anti-human IgG4 Fc-HRP detection
T4 construct: Bought protein coated on the ELISA plate

[6] = target: T3, cynomolgus monkey CD3e overexpressed on …; test: flow cytometry on CHO cells overexpressing cynomolgus monkey CD3e, fluorescent secondary antibody

T2 sequence (P07766 23-207, chain 1 of 3): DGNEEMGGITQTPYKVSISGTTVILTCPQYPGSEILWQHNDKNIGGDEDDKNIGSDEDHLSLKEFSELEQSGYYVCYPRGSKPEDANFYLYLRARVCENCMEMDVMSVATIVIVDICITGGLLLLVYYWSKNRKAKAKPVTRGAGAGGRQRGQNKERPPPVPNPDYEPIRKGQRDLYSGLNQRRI
T2 sequence (P04234 22-171, chain 2 of 3): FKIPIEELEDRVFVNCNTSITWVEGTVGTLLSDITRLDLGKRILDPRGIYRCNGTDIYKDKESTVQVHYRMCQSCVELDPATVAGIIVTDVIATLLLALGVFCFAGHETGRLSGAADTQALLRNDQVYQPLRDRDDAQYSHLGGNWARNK
T2 sequence (P09693 23-182, chain 3 of 3): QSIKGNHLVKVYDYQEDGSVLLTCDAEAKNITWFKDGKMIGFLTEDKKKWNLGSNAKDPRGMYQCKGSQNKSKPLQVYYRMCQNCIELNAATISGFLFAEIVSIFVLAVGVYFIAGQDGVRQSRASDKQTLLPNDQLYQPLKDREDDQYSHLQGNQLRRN
T3 sequence (Q95LI5 22-198): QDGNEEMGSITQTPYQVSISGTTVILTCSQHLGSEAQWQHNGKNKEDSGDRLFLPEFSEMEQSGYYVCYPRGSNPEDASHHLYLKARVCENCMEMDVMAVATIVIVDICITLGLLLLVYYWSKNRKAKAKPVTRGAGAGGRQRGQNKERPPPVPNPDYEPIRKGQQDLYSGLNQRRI
T4 sequence (P07766 23-126 limits assumed): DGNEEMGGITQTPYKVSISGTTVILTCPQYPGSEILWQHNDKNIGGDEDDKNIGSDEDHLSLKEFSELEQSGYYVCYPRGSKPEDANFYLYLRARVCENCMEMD

Molecule	EC50 [1]	EC50 [2]	EC50 [3]	binding result [4]	EC50 [5]	binding result [6]
REGN1979 (Regeneron Pharmaceuticals) (bispecific antibody)	30.1 µg/mL	4.7 µg/mL				
Anti-KLH IgG4 (antibody)			52 µg/mL			
B1	3.67 µg/mL	4.44 µg/mL		binds	0.0214 µg/mL	
B2	0.515 µg/mL	26.6 µg/mL		binds	0.0856 µg/mL	
B3						binds
